In the assay the target is mature Zika virus (ZIKV) virion, icosahedral shell of 180 copies each of the E protein and M protein (Zika virus). Put plainly: cryo-EM structure; purified ZIKV virions (10 mM Tris-HCl pH 8.0, 120 mM NaCl, 1 mM EDTA) mixed with purified Fab (15 mM Tris-HCl pH 8, 150 mM NaCl) at E protein:Fab molar ratio 1:2; single particle analysis with icosahedral symmetry, 4.1 Å.

From article PMC7337043 come the findings set out here.

B1: Fab of monoclonal antibody ZAb_FLEP (Fab, V domains shown)
VH: EVQLLESGGGLVQPGGSLRLSCAASGFSFSTYSMHWVRQAPGKGLEWVSAISGEGDSAYYADSVKGRFTISRDNSKNTLYLQMNKVRAEDTAVYYCVGGYSNFYYYYTMDAWGQGTMVTVSS
VL: DIVMTQSPASLSLSPGERATLSCRATQSISTFLAWYQQKPGQAPRLLIYDASTRASGIPARFSGSRSGTDFTLTITRLEPEDFAVYYCQQRYNWPPYSFGQGTKLEIK
As to B1, the stoichiometry N (Fab molecules per virion) is 120.
